Results reported in the supplement of paper PMC5998384.

How the values were obtained:
[1] = system: HeLa Kyoto; test: thermal stability score vs G1/S (z-score of summed log2 fold changes over temperatures); higher = more thermally stable than in G1/S
[2] = system: HeLa Kyoto; test: melting temperature (median over replicates), in situ; higher = more thermally stable
[3] = cell cycle stage: early G1 (4.5 h after nocodazole release)
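Wherever melting temperature (median over replicates), in situ is given: HeLa Kyoto cells synchronized by double thymidine or nocodazole block, proteins quantified by TMT10plex mass spectrometry, three independent biological replicates.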
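Wherever thermal stability score vs G1/S (z-score of summed log2 fold changes over temperatures) is given: synchronized HeLa Kyoto cells, proteins quantified by TMT10plex mass spectrometry, three biological replicates, mitosis taken 0.5 h after nocodazole release, G1/S directly after double thymidine block.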

Row | Sequence | thermal stability score [1, 3] | thermal stability score ([1]; cell cycle stage: mitosis) | melting temperature ([2]; cell cycle stage: G1/S) | melting temperature ([2]; cell cycle stage: mitosis)
1 | MLTTLLPILLLSGWAFCSQDASDGLQRLHMLQISYFRDPYHVWYQGNASLGGHLTHVLEGPDTNTTIIQLQPLQEPESWARTQSGLQSYLLQFHGLVRLVHQERTLAFPLTIRCFLGCELPPEGSRAHVFFEVAVNGSSFVSFRPERALWQADTQVTSGVVTFTLQQLNAYNRTRYELREFLEDTCVQYVQKHISAENTKGSQTSRSYTSLVLGVLVGSFIIAGVAVGIFLCTGGRRC [PROCR] | 1.63 | 0.816 | 59.1 °C | 57.1 °C
2 | MPSPQLLVLFGSQTGTAQDVSERLGREARRRRLGCRVQALDSYPVVNLINEPLVIFVCATTGQGDPPDNMKNFWRFIFRKNLPSTALCQMDFAVLGLGDSSYAKFNFVAKKLHRRLLQLGGSALLPVCLGDDQHELGPDAAVDPWLRDLWDRVLGLYPPPPGLTEIPPGVPLPSKFTLLFLQEAPSTGSEGQRVAHPGSQEPPSESKPFLAPMISNQRVTGPSHFQDVRLIEFDILGSGISFAAGDVVLIQPSNSAAHVQRFCQVLGLDPDQLFMLQPREPDVSSPTRLPQPCSMRHLVSHYLDIASVPRRSFFELLACLSLHELEREKLLEFSSAQGQEELFEYCNRPRRTILEVLCDFPHTAAAIPPDYLLDLIPVIRPRAFSIASSLLTHPSRLQILVAVVQFQTRLKEPRRGLCSSWLASLDPGQGPVRVPLWVRPGSLAFPETPDTPVIMVGPGTGVAPFRAAIQERVAQGQTGNFLFFGCRWRDQDFYWEAEWQELEKRDCLTLIPAFSREQEQKVYVQHRLRELGSLVWELLDRQGAYFYLAGNAKSMPADVSEALMSIFQEEGGLCSPDAAAYLARLQQTRRFQTETWA [NDOR1] | -0.788 | -0.432 | 52.6 °C | –
3 | MSEGDSVGESVHGKPSVVYRFFTRLGQIYQSWLDKSTPYTAVRWVVTLGLSFVYMIRVYLLQGWYIVTYALGIYHLNLFIAFLSPKVDPSLMEDSDDGPSLPTKQNEEFRPFIRRLPEFKFWHAATKGILVAMVCTFFDAFNVPVFWPILVMYFIMLFCITMKRQIKHMIKYRYIPFTHGKRRYRGKEDAGKAFAS [RER1] | -0.257 | -1.81 | 55.1 °C | 55.5 °C
4 | MSEKSVEAAAELSAKDLKEKKEKVEEKASRKERKKEVVEEEENGAEEEEEETAEDGEEEDEGEEEDEEEEEEDDEGPALKRAAEEEDEADPKRQKTENGASA [PTMS] | -1.16 | -2.62 | 55.5 °C | 51.9 °C
5 | MSRLLPLLRSRTARSLRPGPAAAAAPRPPSWCCCGRGLLALAPPGGLPGGPRRLGTHPKKEPMEALNTAQGARDFIYSLHSTERSCLLKELHRFESIAIAQEKLEAPPPTPGQLRYVFIHNAIPFIGFGFLDNAIMIVAGTHIEMSIGIILGISTMAAAALGNLVSDLAGLGLAGYVEALASRLGLSIPDLTPKQVDMWQTRLSTHLGKAVGVTIGCILGMFPLIFFGGGEEDEKLETKS [TMEM65] | 0.563 | 0.332 | 55.5 °C | 55.9 °C
6 | MTSALENYINRTVAVITSDGRMIVGTLKGFDQTINLILDESHERVFSSSQGVEQVVLGLYIVRGDNVAVIGEIDEETDSALDLGNIRAEPLNSVAH [LSM8] | -1.46 | -3.54 | 57.1 °C | 57.5 °C
7 | MVAPVWYLVAAALLVGFILFLTRSRGRAASAGQEPLHNEELAGAGRVAQPGPLEPEEPRAGGRPRRRRDLGSRLQAQRRAQRVAWAEADENEEEAVILAQEEEGVEKPAETHLSGKIGAKKLRKLEEKQARKAQREAEEAEREERKRLESQREAEWKKEEERLRLEEEQKEEEERKAREEQAQREHEEYLKLKEAFVVEEEGVGETMTEEQSQSFLTEFINYIKQSKVVLLEDLASQVGLRTQDTINRIQDLLAEGTITGVIDDRGKFIYITPEELAAVANFIRQRGRVSIAELAQASNSLIAWGRESPAQAPA [DDRGK1] | -0.767 | -0.701 | 52.9 °C | 52.9 °C
8 | MVPGAAGWCCLVLWLPACVAAHGFRIHDYLYFQVLSPGDIRYIFTATPAKDFGGIFHTRYEQIHLVPAEPPEACGELSNGFFIQDQIALVERGGCSFLSKTRVVQEHGGRAVIISDNAVDNDSFYVEMIQDSTQRTADIPALFLLGRDGYMIRRSLEQHGLPWAIISIPVNVTSIPTFELLQPPWTFW [PRADC1] | -2.33 | -2.03 | 53.8 °C | 52.7 °C
